Measured values reported in publication PMC10941009, “Structural basis for specific DNA sequence recognition by the transcription factor NFIL3” (The Journal of Biological Chemistry, 2024).
Changes are numbered by the printed parent chain.

Experiments:
Test in all cases: ITC; ITC: 20 mM Tris pH 7.5, 150 mM NaCl, 25 °C; EMSA: same buffer, 4 °C, 6% native gel in 0.5x TBE
Details in all cases: protein: recombinant; tags: His6-SUMO removed by TEV; chain copies: 2; blunt
NFIL3 E111D = biological target: T1, NFIL3 E111D (human, UniProt Q16649 65-161, E111D)
T1 sequence: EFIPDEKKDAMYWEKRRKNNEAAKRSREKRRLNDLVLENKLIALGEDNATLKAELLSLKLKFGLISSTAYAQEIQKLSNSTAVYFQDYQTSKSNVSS

C/EBPβ E309D = C/EBPβ E309D (human, UniProt P17676 259-336, E309D)
C/EBPα D320E = C/EBPα D320E (human, UniProt P49715 281-340, D320E)
NFIL3 N84A = biological target: T2, NFIL3 N84A (human, UniProt Q16649 65-161, N84A)
T2 sequence: T1 sequence with N20A, D47E

NFIL3 R95Q = biological target: T3, NFIL3 R95Q (human, UniProt Q16649 65-161, R95Q)
T3 sequence: T1 sequence with R31Q, D47E

NFIL3 A113V = biological target: T4, NFIL3 A113V (human, UniProt Q16649 65-161, A113V)
T4 sequence: T1 sequence with D47E, A49V

NFIL3 R94H = biological target: T5, NFIL3 R94H (human, UniProt Q16649 65-161, R94H)
T5 sequence: T1 sequence with R30H, D47E

NFIL3 N112D = biological target: T6, NFIL3 N112D (human, UniProt Q16649 65-161, N112D)
T6 sequence: T1 sequence with D47E, N48D

NFIL3 E78G = biological target: T7, NFIL3 E78G (human, UniProt Q16649 65-161, E78G)
T7 sequence: T1 sequence with E14G, D47E

NFIL3 E111Q = biological target: T8, NFIL3 E111Q (human, UniProt Q16649 65-161, E111Q)
T8 sequence: T1 sequence with D47Q

NFIL3 A113T = biological target: T9, NFIL3 A113T (human, UniProt Q16649 65-161, A113T)
T9 sequence: T1 sequence with D47E, A49T

C/EBPα D320E, sequence (P49715 281-340 D320E): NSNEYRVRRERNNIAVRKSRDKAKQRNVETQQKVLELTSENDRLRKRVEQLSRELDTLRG
C/EBPβ E309D, sequence (P17676 259-336 E309D): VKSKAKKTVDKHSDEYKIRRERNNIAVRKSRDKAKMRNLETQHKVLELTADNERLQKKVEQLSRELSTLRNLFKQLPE

B1: TTACGTAA (dsDNA)
DNA 1: CATTACGTAATG
DNA 2: CATTACGTAATG
- binding signal (NFIL3 E111D): ~8 fold weaker than WT
- binding signal (C/EBPβ E309D): ~4 fold weaker than WT
- binding signal (C/EBPα D320E): ~5 fold stronger than WT
- Kd (NFIL3 N84A): 1.49 ± 0.11 µM
- Kd (NFIL3 R95Q): 8.4 ± 0.72 µM
- Kd (NFIL3 A113V): 0.12 ± 0.01 µM
- Kd (NFIL3 R94H): 4.01 ± 0.74 µM
- Kd (NFIL3 N112D): 2.15 ± 0.16 µM
- Kd (NFIL3 E78G): 2.18 ± 0.15 µM
- Kd (NFIL3 E111Q): 0.2 ± 0.02 µM
- Kd (NFIL3 A113T): 0.22 ± 0.03 µM
